{
  "source": "paper PMC9870871",
  "about": "“Investigating the effects of cyclic topology on the performance of a plastic degrading enzyme for polyethylene terephthalate degradation” (Scientific Reports, 2023)",
  "substrate": "CC(=O)Oc1ccc([N+](=O)[O-])cc1",
  "assay": "purified protein",
  "assay_type": "biochemical, Pseudideonella sakaiensis",
  "conditions": "50 mM Na2HPO4 pH 7.5, 30 °C, 5% v/v DMSO, 10 nM enzyme, 0-5.0 mM substrate",
  "data": [
    {"protein": "IsPETase-WT (Pseudideonella sakaiensis) (protein, linear wild-type enzyme, synthetic gene in pET-28a(+) or pET-21b(+), E. coli Shuffle T7 Express, Ni-NTA and SEC; monomer) QTNPYARGPNPTAASLEASAGPFTVRSFTVSRPSGYGAGTVYYPTNAGGTVGAIAIVPGYTARQSSIKWWGPRLASHGFVVITIDTNSTLDQPSSRSSQQMAALRQVASLNGTSSSPIYGKVDTARMGVMGWSMGGGGSLISAANNPSLKAAAPQAPWDSSTNFSSVTVPTLIFACENDSIAPVNSSALPIYDSMSRNAKQFLEINGGSHSCANSGNSNQALIGKKGVAWMKRFMDNDTRYSTFACENPNSTRVSDFRTANCS", "values": [
      {"measurement": "Km", "result": "2700 ± 300", "unit": "µM"}
    ]}
  ]
}
